Measurements taken from patent US7858322B2, “Method of determining inhibition of binding to TRPM7 protein” (NoNo, Inc., priority 2003, dated 2010).
No end group written: not given here. *: point of attachment. Biotin = O=C1N[C@H]2[C@H](CS[C@H]2CCCCC(=O)*)N1

molecular target: T1, Syntrophin 1 alpha d1 (Homo sapiens, UniProt Q13424); assay: G assays, titrations or binding assays of peptides; conditions: peptide demonstrated to bind syntrophin 1 alpha d1 in G assays
T1 construct: made in house; host or cells: E. coli (DH5α, BL21 or JM109)
T1 sequence (Q13424 84-177): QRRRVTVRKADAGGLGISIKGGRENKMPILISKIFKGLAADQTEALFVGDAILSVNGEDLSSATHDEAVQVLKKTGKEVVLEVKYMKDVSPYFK
Protocol: In one aspect, the invention provides an assay in which a GST/PDZ fusion protein is immobilized on a surface (G assay). The binding of labeled PL peptide (e.g., as listed in TABLE 2 and TABLE 4) to this surface is then measured. In a preferred embodiment, the assay is carried out as follows:
(1) A PDZ-domain polypeptide is bound to a surface, e.g. a protein binding surface. In a preferred embodiment, a GST/PDZ fusion protein containing one or more PDZ domains is bound to a polystyrene 96-well plate. […] In one embodiment, the GST/PDZ fusion protein is bound via an anti-GST antibody that is coated onto the 96-well plate. Adequate binding to the plate can be achieved when: • a. 100 μl per well of 5 μg/ml goat anti-GST polyclonal antibody (Pierce) in PBS is added to a polystyrene 96-well plate (e.g., Nunc Polysorp) at 4° C. for 12 hours. • b. The plate is blocked by addition of 200 μl per well of PBS/BSA for 2 hours at 4° C. • c. The plate is washed 3 times with PBS. • d. 50 μl per well of 5 μg/ml GST/PDZ fusion protein) or, as a negative control, GST polypeptide alone (i.e. not a fusion protein) in PBS/BSA is added to the plate for 2 hours at 4° C. • e. the plate is again washed 3 times with PBS.
(2) Biotinylated PL peptides are allowed to react with the surface by addition of 50 μl per well of 20 μM solution of the biotinylated peptide in PBS/BSA for 10 minutes at 4° C., followed by an additional 20 minute incubation at 25° C. The plate is washed 3 times with ice cold PBS.
(3) The binding of the biotinylated peptide to the GST/PDZ fusion protein surface can be detected using a variety of methods and detectors known to one of skill in the art. In one embodiment, 100 μl per well of 0.5 μg/ml streptavidin-horseradish peroxidase (HRP) conjugate dissolved in BSA/PBS is added and allowed to react for 20 minutes at 4° C. The plate is then washed 5 times with 50 mM Tris pH 8.0 containing 0.2% Tween 20, and developed by addition of 100 μl per well of HRP-substrate solution (TMB, Dako) for 20 minutes at room temperature (RT). The reaction of the HRP and its substrate is terminated by addition of 100 μl per well of 1 M sulfuric acid, and the optical density (O.D.) of each well of the plate is read at […].
(4) Specific binding of a PL peptide and a PDZ domain polypeptide is determined by comparing the signal from the well(s) in which the PL peptide and PDZ domain polypeptide are combined, with the background signal(s). The background signal is the signal found in the negative control(s). Typically a specific or selective reaction will be at least twice background signal, more typically more than 5 times background, and most typically 10 or more times the background signal. In addition, a statistically significant reaction will involve multiple measurements of the reaction with the signal and the background differing by at least two standard errors, more typically four standard errors, and most typically six or more standard errors. Correspondingly, a statistical test (e.g. a T-test) comparing repeated measurements of the signal with repeated measurements of the background will result in a p-value <0.05, more typically a p-value <0.01, and most typically a p-value <0.001 or less. As noted, in an embodiment of the G assay, the signal from binding of a given PL peptide to immobilized (surface bound) GST polypeptide alone is one suitable negative control (sometimes referred to as B1). Because all measurement are done in multiples (i.e. at least duplicate) the arithmetic mean (or, equivalently, average.) of several measurements is used in determining the binding, and the standard error of the mean is used in determining the probable error in the measurement of the binding. The standard error of the mean of N measurements equals the square root of the following: the sum of the squares of the difference between each measurement and the mean, divided by the product of (N) and (N−1). […]

Substance | POZ domain bound
AVGGRPARGGRLQGRRQTQV | Syntrophin 1 alpha D1
QISPGGLEPPSEKHFRETEV | Syntrophin 1 alpha D1
TGSALQAWRHTSRQATESTV (Biotin-TGSALQAWRHTSRQATESTV) | Syntrophin 1 alpha D1
TQGFPGPATWRRISSLESEV (Biotin-TQGFPGPATWRRISSLESEV) | Syntrophin 1 alpha D1
AAGGRSARGGRLQGRRETAL | Syntrophin 1 alpha D1
VPGALDYAAFSSALYGESDL (Biotin-VPGALDYAAFSSALYGESDL) | Syntrophin 1 alpha D1

Second part, the substance after the results:

POZ domain bound | Substance
Syntrophin 1 alpha D1 | PIPAGGCTFSGIFPTLTSPL (Biotin-PIPAGGCTFSGIFPTLTSPL)
Syntrophin 1 alpha D1 | VHDAESSOEDGYDWGPATDL: peptide, SEQ ID NO:330 (Biotin-VHDAESSDEDGYDWGPATDL)
Syntrophin 1 alpha D1 | DTLLLTENEGDKTEEQVSYV (Biotin-DTLLLTENEGDKTEEQVSYV)
Syntrophin 1 alpha D1 | TFKGTPTAENPEYLGLDVPV (Biotin-TFKGTPTAENPEYLGLDVPV)
Syntrophin 1 alpha D1 | FNGSSNGHVYEKLSSIESDV (Biotin-FNGSSNGHVYEKLSSIESDV)
Syntrophin 1 alpha D1 | PYSELNYETSHYPASPDSWV (Biotin-PYSELNYETSHYPASPDSWV)
Syntrophin 1 alpha D1 | ILNSIQVMRAQMNQIQSVEV (Biotin-ILNSIQVMRAQMNQIQSVEV)

molecular target: T2, PAR3 d3 (Homo sapiens, UniProt Q8TEW0, R682S); assay: G assays, titrations or binding assays of peptides; conditions: peptide demonstrated to bind PAR3 d3 in G assays
T2 construct: made in house; host or cells: E. coli (DH5α, BL21 or JM109)
T2 sequence (Q8TEW0 with tags, fused parts or gaps R682S): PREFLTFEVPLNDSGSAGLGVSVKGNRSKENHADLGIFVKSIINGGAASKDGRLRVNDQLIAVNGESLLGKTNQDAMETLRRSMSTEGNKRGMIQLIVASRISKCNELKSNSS
Protocol: (§1) In one aspect, the invention provides an assay in which a GST/PDZ fusion protein is immobilized on a surface (G assay). […] In a preferred embodiment, the assay is carried out as follows:
(§2) (3) The binding of the biotinylated peptide to the GST/PDZ fusion protein surface can be detected using a variety of methods and detectors known to one of skill in the art. In one embodiment, 100 μl per well of 0.5 μg/ml streptavidin-horseradish peroxidase (HRP) conjugate dissolved in BSA/PBS is added and allowed to react for 20 minutes at 4° C. The plate is then washed 5 times with 50 mM Tris pH 8.0 containing 0.2% Tween 20, and developed by addition of 100 μl per well of HRP-substrate solution (TMB, Dako) for 20 minutes at room temperature (RT). The reaction of the HRP and its substrate is terminated by addition of 100 μl per well of 1 M sulfuric acid, and the optical density (O.D.) of each well of the plate is read at 450 um.
(§3) (4) Specific binding of a PL peptide and a PDZ domain polypeptide is determined by comparing the signal from the well(s) in which the PL peptide and PDZ domain polypeptide are combined, with the background signal(s). […] Typically a specific or selective reaction will be at least twice background signal, more typically more than 5 times background, and most typically 10 or more times the background signal. […] Correspondingly, a statistical test (e.g. a T-test) comparing repeated measurements of the signal with repeated measurements of the background will result in a p-value <0.05, more typically a p-value <0.01, and most typically a p-value <0.001 or less. As noted, in an embodiment of the G assay, the signal from binding of a given PL peptide to immobilized (surface bound) GST polypeptide alone is one suitable negative control (sometimes referred to as B1). Because all measurement are done in multiples (i.e. at least duplicate) the arithmetic mean (or, equivalently, average.) of several measurements is used in determining the binding, and the standard error of the mean is used in determining the probable error in the measurement of the binding. The standard error of the mean of N measurements equals the square root of the following: the sum of the squares of the difference between each measurement and the mean, divided by the product of (N) and (N−1). Thus, in one embodiment, specific binding of the PDZ protein to the platebound peptide is determined by comparing the mean signal (“mean S”) and standard error of the signal (“SE”) for a particular PL-PDZ combination with the mean B1.

POZ domain bound | Substance
PAR3 D3 | PIPAGGCTFSGIFPTLTSPL (Biotin-PIPAGGCTFSGIFPTLTSPL)
PAR3 D3 | DTLLLTENEGDKTEEQVSYV (Biotin-DTLLLTENEGDKTEEQVSYV)
PAR3 D3 | ILNSIQVMRAQMNQIQSVEV (Biotin-ILNSIQVMRAQMNQIQSVEV)

molecular target: T3, INADL d3 (Homo sapiens, UniProt Q8NI35); assay: G assays, titrations or binding assays of peptides; conditions: peptide demonstrated to bind INADL d3 in G assays
T3 construct: made in house; host or cells: E. coli (DH5α, BL21 or JM109)
T3 sequence (Q8NI35 with tags, fused parts or gaps): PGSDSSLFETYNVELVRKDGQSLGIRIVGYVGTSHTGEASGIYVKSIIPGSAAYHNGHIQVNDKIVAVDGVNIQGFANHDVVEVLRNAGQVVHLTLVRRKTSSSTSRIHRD
Protocol: as §1, §2, §3

POZ domain bound | Substance
INADL D3 | PIPAGGCTFSGIFPTLTSPL (Biotin-PIPAGGCTFSGIFPTLTSPL)
INADL D3 | TQGFPGPATWRRISSLESEV (Biotin-TQGFPGPATWRRISSLESEV)
INADL D3 | ILNSIQVMRAQMNQIQSVEV (Biotin-ILNSIQVMRAQMNQIQSVEV)

molecular target: T4, ZO-1 d2 (Homo sapiens, UniProt Q07157, DEL264-264); assay: G assays, titrations or binding assays of peptides; conditions: peptide demonstrated to bind ZO-1 d2 in G assays
T4 construct: made in house; host or cells: E. coli (DH5α, BL21 or JM109)
T4 sequence (Q07157 with tags, fused parts or gaps DEL264-264): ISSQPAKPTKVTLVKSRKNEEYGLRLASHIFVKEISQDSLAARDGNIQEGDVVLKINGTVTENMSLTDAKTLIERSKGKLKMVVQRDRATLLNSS
Protocol: as §1, §2, §3

POZ domain bound | Substance
ZO-1 D2 | ILNSIQVMRAQMNQIQSVEV (Biotin-ILNSIQVMRAQMNQIQSVEV)
